Measured values from the RNAGym collection of RNA variant scans (doi:10.1073/pnas.2313332121).
This sample holds only a part of the variants without activity.

B1: TPR 5TU (parent)
chain: GGAUCUUCUCGAUCUAACAAAAAAGACAAAUCUGCCACAAAGCUUGAGAGCAUCUUCGGAUGCAGAGGCGGCAGCCUUCGGUGGCGCGAUAGCGCCAACGUUCUCAACUAUGACACGCAAAACGCGUGCUCCGUUGAAUGGAGUUUAUCAUG

Variants of: B1
Test: polymerase ribozyme fitness, log enrichment relative to wild type (log ratio); higher = more active; in vitro selection for triplet polymerase activity
In short: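 Genotype fitness is the logarithm of its enrichment divided by wild-type enrichment, using inverse-variance-weighted averages of replicates. That logarithm is base 2. Enrichment was measured by Illumina sequencing of input and output libraries from one triplicate in vitro selection round, with frozen incubation at −7 °C, on PCR-built, transcribed mutant libraries of each subunit of a heterodimeric triplet polymerase ribozyme, retaining genotypes with ≥10 input reads and ≥1 read per output.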

Variant | polymerase ribozyme fitness (log ratio)
C38U G84U | -2.42
C38G C54A G74U A106U G140U | ≤ -4.2
C38U C116G U148A | -3.89
A37U U135A | -2.34
C38U U61C U145A | -2.49
C38U A110U | -3.7
A37U U61A C85U | -2.89
C38U G84U C87G U144C C149G | ≤ -4.2
A37U G92C G133C | -3.52
C38U A39C A60U | -3.28
A37U A52G C76A C96U C131G | ≤ -4.2
A37U G94A | -1
C38A C76A C93U G117A | -1.25
C38U C69G C95U A122C | -2.43
A37U A73G | -1.1
C38U C95U | -0.731
C38U C95A | -1.07
C38U A52G G92A G124U | -3.84
C38U U61A A106C G141A | -3.01
A37G A47U G81C C95G U102G A120U U134C U135G A137C | ≤ -4.2
C38A A73G C79A C114G G124U G140U U148G | ≤ -4.2

Variant | polymerase ribozyme fitness (log ratio)
C38U G83U C149G A150C | ≤ -4.2
A37G C38A C43U C54G G80U U104G | ≤ -4.2
A37G C95G C114U A119U A120G | ≤ -4.2
A37G U45A C96U | ≤ -4.2
C38U A107C | -3.45
C38G U56A C93U U104G A122C | -2.96
C38G G42C U61G G86U | ≤ -4.2
C38U A52G C93G G117U | -3.91
A37G G74U C87G A115C | ≤ -4.2
C38G U56G C72A A91U A107C G117A U148A | ≤ -4.2
C38A C43G C105G C116U | ≤ -4.2
A37G U61C G94U U145C | ≤ -4.2
C38A G94A C123U | -0.611
C38U A73U | 0.0337
C38U C54A A60U | -0.76
C38G A40U U55A U56A C87U A89C | -3.99
C38A C95A C118A | -1.55
C38A A40U G48U C87G C99U G124A G140C | ≤ -4.2
C38U C93U A121G G124A U135G | ≤ -4.2
C38A U56A | -0.602
A37U A52G C76U C95A | -2.41

Variant | polymerase ribozyme fitness (log ratio)
C38U C54U C57A G84A C118U | -1.06
C38U C63A G94C | -0.694
C38U G92A U146A | -2.92
C38G C43U C87A C132G U135G G136C U146A | ≤ -4.2
A37G A39U G58C G62A C63U A64U U77A C87G C103G A150U | ≤ -4.2
A37U C87U | -0.99
A37G A41C G71A U90A C96U | ≤ -4.2
A37U G58U C96U C118G U146C | -3.08
A37G U45A C76G U82G C93G A113C G136U | ≤ -4.2
C38U C57G A89U G100C | ≤ -4.2
A37U A98G | -1.34
C38A C63G A150G | -3
C38U A89G | -1.07
C38U U53G C96G | -1.73
C38U U55A C85U | -0.272
C38U G50A A73U G126U | -3.21
C38A A122U A137G G141U A142G | -3.83
C38U C85U C105U C123G | 0.319
C38U G86A U148C | -3.22
C38U A60C C85U C118U G136A | -0.726
C38A G84A U148G | ≤ -4.2

Variant | polymerase ribozyme fitness (log ratio)
C38A A89C C93G C95G C108U U135C | ≤ -4.2
C38A U56A G86C | -3.01
C38U C85G C93U G117U G128C | ≤ -4.2
C38A C57G U77G C79U A91G | ≤ -4.2
C38U U55G C85A | -2.3
C38U G140U | -2.77
C38U C95A C108U C132U | -3.39
C38A G58U C95G | -1.52
A37G U53A U134G | -3.7
C38A C87A | ≤ -4.2
C38U G48C G92A A142C G143U | ≤ -4.2
C38G C54U C57U G141C | -2.86
A37U G42A C85A A138G | ≤ -4.2
C38U C93G | -2.92
A37U C85G C125U G141A | ≤ -4.2
A37U C38G A97C | -1.69
C38U C51U U56A G94U C105A A121U | -4.15
A37G U61A G141C U148C | ≤ -4.2
C38U C87G | -3.75
C38U C87U | -1.19
A37G A40U C54G A60G | -2.66
